Results from US20240279278A1, “NMU RECEPTOR 2 AGONISTS” (Boehringer Ingelheim International GmbH, priority 2023, published 2024).
Starred links: 1 amine or outer side, 2 acyl side, 3 side chain; linkers in the order of their positions; H or OH if unused. Non-standard residues stand in square brackets, D forms with d. *: point of attachment. Pipz(1-CH2CO,4-CH2CH2NH) = O=C(CN1CCN(CCN[*:1])CC1)[*:2]; C18 diacid = O=C(O)CCCCCCCCCCCCCCCCC(=O)*; γGlu = O=C(O)[C@H](CCC(=O)[*:2])N[*:1]; 4Pal = N[C@@H](Cc1ccncc1)C(=O)O; NMeL = CN[C@@H](CC(C)C)C(=O)O; NMeA = CN[C@@H](C)C(=O)O; Nle = CCCC[C@H](N)C(=O)O; Sar = CNCC(=O)O

T1: human neuromedin U receptor 1 (human, UniProt Q9HB89 24-426)
T1 sequence (looked up): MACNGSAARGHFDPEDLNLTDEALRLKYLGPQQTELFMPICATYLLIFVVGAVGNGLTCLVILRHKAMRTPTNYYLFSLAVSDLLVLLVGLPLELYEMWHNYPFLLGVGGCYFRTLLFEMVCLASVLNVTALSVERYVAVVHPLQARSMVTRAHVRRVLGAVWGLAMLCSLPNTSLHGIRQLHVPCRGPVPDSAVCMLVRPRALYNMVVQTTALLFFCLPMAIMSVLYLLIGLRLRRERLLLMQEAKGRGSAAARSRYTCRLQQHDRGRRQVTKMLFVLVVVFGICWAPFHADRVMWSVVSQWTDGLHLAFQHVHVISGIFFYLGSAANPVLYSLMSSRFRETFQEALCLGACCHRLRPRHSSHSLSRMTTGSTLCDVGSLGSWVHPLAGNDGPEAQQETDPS


Target: T1, human neuromedin U receptor 1
Test: cell-based or functional assay

Row | EC50 (hNMUR1) buffer | Binder
1 | 540 nM | EEEXXXXXXXXXXYFLXXPRG (HELM PEPTIDE1{[O=C(O)CCCCCCCCCCCCCCCCCCC(=O)[*:2]].[gGlu].[gGlu].[gGlu].[Sar].[Sar].[Sar].[Sar].[Sar].[Sar].[Sar].[Sar].[Sar].[O=C(CN1CCN(CCN[*:1])CC1)[*:2]].Y.F.[meL].[Nle].[Dab].P.R.G.[am]}$$$$V2.0; SMILES CCCC[C@H](NC(=O)[C@H](CC(C)C)N(C)C(=O)[C@H](Cc1ccccc1)NC(=O)[C@H](Cc1ccc(O)cc1)NC(=O)CN1CCN(CCNC(=O)CN(C)C(=O)CN(C)C(=O)CN(C)C(=O)CN(C)C(=O)CN(C)C(=O)CN(C)C(=O)CN(C)C(=O)CN(C)C(=O)CN(C)C(=O)CC[C@H](NC(=O)CC[C@H](NC(=O)CC[C@H](NC(=O)CCCCCCCCCCCCCCCCCCC(=O)O)C(=O)O)C(=O)O)C(=O)O)CC1)C(=O)N[C@@H](CCN)C(=O)N1CCC[C@H]1C(=O)N[C@@H](CCCNC(=N)N)C(=O)NCC(N)=O) [C20DA-gGlu3-Sar9-AEPipAc-Tyr-Phe-NMeLeu-Nle-Dbu-Pro-Arg-Gly-NH2]
2 | 670 nM | EEEXXXXXXXXXXXXXYFLXRARG (HELM PEPTIDE1{[O=C(O)CCCCCCCCCCCCCCCCCCC(=O)[*:2]].[gGlu].[gGlu].[gGlu].[Sar].[Sar].[Sar].[Sar].[Sar].[Sar].[Sar].[Sar].[Sar].[Sar].[Sar].[Sar].[O=C(CN1CCN(CCN[*:1])CC1)[*:2]].Y.F.[meL].[Nle].R.[meA].R.G.[am]}$$$$V2.0; SMILES CCCC[C@H](NC(=O)[C@H](CC(C)C)N(C)C(=O)[C@H](Cc1ccccc1)NC(=O)[C@H](Cc1ccc(O)cc1)NC(=O)CN1CCN(CCNC(=O)CN(C)C(=O)CN(C)C(=O)CN(C)C(=O)CN(C)C(=O)CN(C)C(=O)CN(C)C(=O)CN(C)C(=O)CN(C)C(=O)CN(C)C(=O)CN(C)C(=O)CN(C)C(=O)CN(C)C(=O)CC[C@H](NC(=O)CC[C@H](NC(=O)CC[C@H](NC(=O)CCCCCCCCCCCCCCCCCCC(=O)O)C(=O)O)C(=O)O)C(=O)O)CC1)C(=O)N[C@@H](CCCNC(=N)N)C(=O)N(C)[C@@H](C)C(=O)N[C@@H](CCCNC(=N)N)C(=O)NCC(N)=O) [C20DA-gGlu3-Sar12-AEPipAc-Tyr-Phe-NMeLeu-Nle-Arg-NMeAla-Arg-Gly-NH2]
3 | > 1000 nM | EEEXXXXXXXXXXXXXYFLXXARG (HELM PEPTIDE1{[O=C(O)CCCCCCCCCCCCCCCCCCC(=O)[*:2]].[gGlu].[gGlu].[gGlu].[Sar].[Sar].[Sar].[Sar].[Sar].[Sar].[Sar].[Sar].[Sar].[Sar].[Sar].[Sar].[O=C(CN1CCN(CCN[*:1])CC1)[*:2]].Y.F.[meL].[Nle].[Dab].[meA].R.G.[am]}$$$$V2.0; SMILES CCCC[C@H](NC(=O)[C@H](CC(C)C)N(C)C(=O)[C@H](Cc1ccccc1)NC(=O)[C@H](Cc1ccc(O)cc1)NC(=O)CN1CCN(CCNC(=O)CN(C)C(=O)CN(C)C(=O)CN(C)C(=O)CN(C)C(=O)CN(C)C(=O)CN(C)C(=O)CN(C)C(=O)CN(C)C(=O)CN(C)C(=O)CN(C)C(=O)CN(C)C(=O)CN(C)C(=O)CC[C@H](NC(=O)CC[C@H](NC(=O)CC[C@H](NC(=O)CCCCCCCCCCCCCCCCCCC(=O)O)C(=O)O)C(=O)O)C(=O)O)CC1)C(=O)N[C@@H](CCN)C(=O)N(C)[C@@H](C)C(=O)N[C@@H](CCCNC(=N)N)C(=O)NCC(N)=O) [C20DA-gGlu3-Sar12-AEPipAc-Tyr-Phe-NMeLeu-Nle-Dbu-NMeAla-Arg-Gly-NH2]
4 | > 1000 nM | EEEXXXXXXXXXXYFLXXARG (HELM PEPTIDE1{[O=C(O)CCCCCCCCCCCCCCCCCCC(=O)[*:2]].[gGlu].[gGlu].[gGlu].[Sar].[Sar].[Sar].[Sar].[Sar].[Sar].[Sar].[Sar].[Sar].[O=C(CN1CCN(CCN[*:1])CC1)[*:2]].Y.F.[meL].[Nle].[Dab].[meA].R.G.[am]}$$$$V2.0; SMILES CCCC[C@H](NC(=O)[C@H](CC(C)C)N(C)C(=O)[C@H](Cc1ccccc1)NC(=O)[C@H](Cc1ccc(O)cc1)NC(=O)CN1CCN(CCNC(=O)CN(C)C(=O)CN(C)C(=O)CN(C)C(=O)CN(C)C(=O)CN(C)C(=O)CN(C)C(=O)CN(C)C(=O)CN(C)C(=O)CN(C)C(=O)CC[C@H](NC(=O)CC[C@H](NC(=O)CC[C@H](NC(=O)CCCCCCCCCCCCCCCCCCC(=O)O)C(=O)O)C(=O)O)C(=O)O)CC1)C(=O)N[C@@H](CCN)C(=O)N(C)[C@@H](C)C(=O)N[C@@H](CCCNC(=N)N)C(=O)NCC(N)=O) [C20DA-gGlu3-Sar9-AEPipAc-Tyr-Phe-NMeLeu-Nle-Dbu-NMeAla-Arg-Gly-NH2]

Further lines, the binder ahead of its results:

Row | Binder | EC50 (hNMUR1) buffer
5 | EEEXXXXXXXXXXYFLXRARG (HELM PEPTIDE1{[O=C(O)CCCCCCCCCCCCCCCCCCC(=O)[*:2]].[gGlu].[gGlu].[gGlu].[Sar].[Sar].[Sar].[Sar].[Sar].[Sar].[Sar].[Sar].[Sar].[O=C(CN1CCN(CCN[*:1])CC1)[*:2]].Y.F.[meL].[Nle].R.[meA].R.G.[am]}$$$$V2.0; SMILES CCCC[C@H](NC(=O)[C@H](CC(C)C)N(C)C(=O)[C@H](Cc1ccccc1)NC(=O)[C@H](Cc1ccc(O)cc1)NC(=O)CN1CCN(CCNC(=O)CN(C)C(=O)CN(C)C(=O)CN(C)C(=O)CN(C)C(=O)CN(C)C(=O)CN(C)C(=O)CN(C)C(=O)CN(C)C(=O)CN(C)C(=O)CC[C@H](NC(=O)CC[C@H](NC(=O)CC[C@H](NC(=O)CCCCCCCCCCCCCCCCCCC(=O)O)C(=O)O)C(=O)O)C(=O)O)CC1)C(=O)N[C@@H](CCCNC(=N)N)C(=O)N(C)[C@@H](C)C(=O)N[C@@H](CCCNC(=N)N)C(=O)NCC(N)=O) [C20DA-gGlu3-Sar9-AEPipAc-Tyr-Phe-NMeLeu-Nle-Arg-NMeAla-Arg-Gly-NH2] | 440 nM
6 | {C18 diacid}-[γGlu][γGlu][γGlu][Sar][Sar][Sar][Sar][Sar][Sar][Sar][Sar][Sar][Sar][Sar][Sar][Sar][Sar][Sar][Pipz(1-CH2CO,4-CH2CH2NH)]YF[NMeL][Nle][4Pal][NMeA]RG-NH2 (SMILES CCCC[C@H](NC(=O)[C@H](CC(C)C)N(C)C(=O)[C@H](Cc1ccccc1)NC(=O)[C@H](Cc1ccc(O)cc1)NC(=O)CN1CCN(CCNC(=O)CN(C)C(=O)CN(C)C(=O)CN(C)C(=O)CN(C)C(=O)CN(C)C(=O)CN(C)C(=O)CN(C)C(=O)CN(C)C(=O)CN(C)C(=O)CN(C)C(=O)CN(C)C(=O)CN(C)C(=O)CN(C)C(=O)CN(C)C(=O)CN(C)C(=O)CC[C@H](NC(=O)CC[C@H](NC(=O)CC[C@H](NC(=O)CCCCCCCCCCCCCCCCC(=O)O)C(=O)O)C(=O)O)C(=O)O)CC1)C(=O)N[C@@H](Cc1ccncc1)C(=O)N(C)[C@@H](C)C(=O)N[C@@H](CCCNC(=N)N)C(=O)NCC(N)=O) [C18DA-gGlu3-Sar15-AEPipAc-Tyr-Phe-NMeLeu-Nle-4Pal-NMeAla-Arg-Gly-NH2] | > 1000 nM
7 | EEXXXXXXXXXXYFLXRARG (HELM PEPTIDE1{[O=C(O)CCCCCCCCCCCCCCCCC(=O)[*:2]].[gGlu].[gGlu].[Sar].[Sar].[Sar].[Sar].[Sar].[Sar].[Sar].[Sar].[Sar].[O=C(CN1CCN(CCN[*:1])CC1)[*:2]].Y.F.[meL].[Nle].R.[meA].R.G.[am]}$$$$V2.0; SMILES CCCC[C@H](NC(=O)[C@H](CC(C)C)N(C)C(=O)[C@H](Cc1ccccc1)NC(=O)[C@H](Cc1ccc(O)cc1)NC(=O)CN1CCN(CCNC(=O)CN(C)C(=O)CN(C)C(=O)CN(C)C(=O)CN(C)C(=O)CN(C)C(=O)CN(C)C(=O)CN(C)C(=O)CN(C)C(=O)CN(C)C(=O)CC[C@H](NC(=O)CC[C@H](NC(=O)CCCCCCCCCCCCCCCCC(=O)O)C(=O)O)C(=O)O)CC1)C(=O)N[C@@H](CCCNC(=N)N)C(=O)N(C)[C@@H](C)C(=O)N[C@@H](CCCNC(=N)N)C(=O)NCC(N)=O) [C18DA-gGlu2-Sar9-AEPipAc-Tyr-Phe-NMeLeu-Nle-Arg-NMeAla-Arg-Gly-NH2] | 550 nM
